According to patent US20140199325A1:

Molecular target: fibronectin (FN)
Assay: solid phase ELISA, HEK293T/17 lysate on FN-coated wells, detected with Cub7402, normalised for expression

Chain of fibronectin (FN) (P02751 32-2477): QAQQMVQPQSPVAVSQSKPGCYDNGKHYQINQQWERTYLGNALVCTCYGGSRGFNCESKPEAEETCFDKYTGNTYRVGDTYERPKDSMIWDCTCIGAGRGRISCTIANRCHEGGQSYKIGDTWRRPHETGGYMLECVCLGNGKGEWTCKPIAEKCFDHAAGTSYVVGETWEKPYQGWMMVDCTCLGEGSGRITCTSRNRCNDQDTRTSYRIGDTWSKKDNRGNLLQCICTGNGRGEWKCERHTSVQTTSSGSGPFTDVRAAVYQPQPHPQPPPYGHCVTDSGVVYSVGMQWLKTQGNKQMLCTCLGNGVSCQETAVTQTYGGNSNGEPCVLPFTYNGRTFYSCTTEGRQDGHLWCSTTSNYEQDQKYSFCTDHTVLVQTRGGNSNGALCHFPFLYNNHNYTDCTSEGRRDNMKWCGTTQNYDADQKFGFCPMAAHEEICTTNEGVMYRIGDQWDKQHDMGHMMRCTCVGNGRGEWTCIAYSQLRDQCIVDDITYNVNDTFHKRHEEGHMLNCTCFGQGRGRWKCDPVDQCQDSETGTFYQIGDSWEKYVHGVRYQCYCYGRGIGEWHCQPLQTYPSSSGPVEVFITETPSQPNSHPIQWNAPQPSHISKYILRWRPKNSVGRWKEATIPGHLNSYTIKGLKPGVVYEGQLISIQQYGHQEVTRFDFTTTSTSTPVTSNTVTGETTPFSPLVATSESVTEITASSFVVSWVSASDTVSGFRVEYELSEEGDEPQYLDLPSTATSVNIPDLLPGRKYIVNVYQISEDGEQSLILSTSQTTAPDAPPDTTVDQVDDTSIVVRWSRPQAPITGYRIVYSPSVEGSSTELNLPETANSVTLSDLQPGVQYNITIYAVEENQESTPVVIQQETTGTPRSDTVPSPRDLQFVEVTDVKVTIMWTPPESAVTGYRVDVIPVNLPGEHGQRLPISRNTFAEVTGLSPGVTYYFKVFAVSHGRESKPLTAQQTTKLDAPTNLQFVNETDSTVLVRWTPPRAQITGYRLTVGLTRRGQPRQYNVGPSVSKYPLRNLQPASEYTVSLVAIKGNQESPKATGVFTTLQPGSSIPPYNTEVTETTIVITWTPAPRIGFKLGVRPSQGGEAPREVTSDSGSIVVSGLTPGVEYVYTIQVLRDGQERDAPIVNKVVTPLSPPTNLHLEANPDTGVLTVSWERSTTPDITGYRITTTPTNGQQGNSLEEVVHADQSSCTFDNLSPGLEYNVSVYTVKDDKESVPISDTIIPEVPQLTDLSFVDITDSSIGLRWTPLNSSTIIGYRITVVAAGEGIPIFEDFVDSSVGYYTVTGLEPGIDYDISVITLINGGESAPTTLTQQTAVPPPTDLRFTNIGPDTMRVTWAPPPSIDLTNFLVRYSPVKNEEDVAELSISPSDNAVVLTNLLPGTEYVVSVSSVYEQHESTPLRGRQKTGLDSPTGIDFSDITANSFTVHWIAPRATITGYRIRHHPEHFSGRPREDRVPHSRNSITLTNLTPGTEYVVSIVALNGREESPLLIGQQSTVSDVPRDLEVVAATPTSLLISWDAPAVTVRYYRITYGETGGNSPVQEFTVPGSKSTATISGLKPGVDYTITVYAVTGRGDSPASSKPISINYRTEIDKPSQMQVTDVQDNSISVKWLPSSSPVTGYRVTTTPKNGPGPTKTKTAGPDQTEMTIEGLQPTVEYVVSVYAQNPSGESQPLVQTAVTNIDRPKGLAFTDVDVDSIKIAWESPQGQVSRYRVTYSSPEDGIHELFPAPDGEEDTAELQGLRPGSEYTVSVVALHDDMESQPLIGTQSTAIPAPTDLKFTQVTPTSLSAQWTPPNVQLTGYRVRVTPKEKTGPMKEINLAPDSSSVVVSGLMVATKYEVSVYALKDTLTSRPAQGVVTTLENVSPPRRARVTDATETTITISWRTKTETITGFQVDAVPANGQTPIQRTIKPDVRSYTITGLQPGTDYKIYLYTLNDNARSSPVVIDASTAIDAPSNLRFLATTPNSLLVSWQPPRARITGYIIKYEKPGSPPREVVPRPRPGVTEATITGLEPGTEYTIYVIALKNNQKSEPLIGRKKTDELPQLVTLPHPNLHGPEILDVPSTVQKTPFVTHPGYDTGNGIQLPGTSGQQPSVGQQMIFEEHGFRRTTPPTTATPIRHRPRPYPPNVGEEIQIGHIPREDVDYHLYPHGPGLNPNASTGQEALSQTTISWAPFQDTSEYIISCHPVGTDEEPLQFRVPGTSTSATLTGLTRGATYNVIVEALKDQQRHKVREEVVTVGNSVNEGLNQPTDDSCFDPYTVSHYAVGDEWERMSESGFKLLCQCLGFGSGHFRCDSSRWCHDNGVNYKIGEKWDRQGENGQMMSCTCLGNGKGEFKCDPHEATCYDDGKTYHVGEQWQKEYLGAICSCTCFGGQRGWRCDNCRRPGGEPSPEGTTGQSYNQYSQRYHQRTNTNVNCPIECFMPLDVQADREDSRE

Row | binding capacity of the wild type | binding compared to wild type TG2 | Substance
1 | 40% |  | N-terminal deletion product of TG2 (Δ1-15) (from UniProt P21980 16-687) (enzyme)
2 |  | 50% | TG2 FN binding site mutant (D94A, D97A) (from UniProt P21980 2-687) (enzyme)
